What was measured:
Assay in all cases: ELISA, immobilized fragment, without factor XIII or with non-activated factor XIII
[1] = biological target: T1, Recombinant αC-fragment corresponding to the human fibrinogen αC-domain (residues Aα221-610) (human, UniProt P02671 240-629)
T1 construct: By fibrinogen convention they are probably mature Aα chain numbering, without the signal peptide
T1 sequence (looked up): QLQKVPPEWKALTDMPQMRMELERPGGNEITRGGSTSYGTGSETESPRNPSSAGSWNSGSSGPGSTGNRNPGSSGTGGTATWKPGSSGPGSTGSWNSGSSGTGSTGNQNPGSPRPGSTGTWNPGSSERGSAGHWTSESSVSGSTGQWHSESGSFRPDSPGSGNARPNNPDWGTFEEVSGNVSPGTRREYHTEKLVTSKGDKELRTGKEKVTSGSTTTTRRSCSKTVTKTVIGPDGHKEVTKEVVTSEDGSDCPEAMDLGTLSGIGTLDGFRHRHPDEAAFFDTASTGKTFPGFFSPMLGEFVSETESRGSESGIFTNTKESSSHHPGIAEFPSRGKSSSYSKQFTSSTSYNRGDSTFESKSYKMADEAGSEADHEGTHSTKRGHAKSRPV
Protocol: (§1) The interaction between thymosin β4 and fibrin(ogen) and its fragments in the presence or absence of FXIIIa was studies by ELISA using plastic microliter plates. Wells of microliter plates were coated overnight at −4° C. with fibrinogen and fibrin at 10 μg/mL or with the recombinant fragments of 20 μg/ml, all in 0.1 M NaHCO₃ buffer, pH 8.3. Fibrin was made by addition to the wells of a mixture containing 10 μg/mL fibrinogen 1 NIH u/ml thrombin and 400 u/ml aprotinin, followed by overnight incubation at +4° C. The wells were then blocked by incubation with Super Blocker (Pierce) at 37° C. for 1 h. Following washing with TBS containing 0.05% Tween-20 (TBS-Tween), the indicated concentrations of thymosin β4, FXIII, FXIIIa(Thr) and FXIIIa(Ca) were added to the wells and incubated for 2-2.5 h at 37° C. Bound (incorporated) thymosin β4 was detected by the reaction with rabbit anti-thymosin β4 serum and peroxidase-conjugated anti-rabbit IgG. A TMB Microwell Peroxidase Substrase was added to the wells, and the incorporated thymosin β4 was measured spectrophotometrically at 450 nm.
(§2) The above observations were confirmed by ELISA. […] It should be noted that the incorporation of the γ-module was almost twice lower than that of the αC-domain variants at all concentration studied. When thymosin β4 was incubated with the same immobilized species in the presence of non-activated factor XIII or without it, the incorporation was very low in all cases.

[2] = biological target: T2, Recombinant truncated αC-fragment, NH2-terminal half (residues Aα221-391) (human, UniProt P02671 240-410)
T2 construct: probably the mature Aα chain
T2 sequence (looked up): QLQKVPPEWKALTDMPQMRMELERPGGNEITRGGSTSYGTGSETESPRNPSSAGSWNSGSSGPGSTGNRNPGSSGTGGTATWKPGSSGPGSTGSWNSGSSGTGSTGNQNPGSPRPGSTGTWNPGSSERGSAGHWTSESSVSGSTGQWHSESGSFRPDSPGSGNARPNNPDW
Protocol: as §1, §2

[3] = biological target: T3, Recombinant truncated αC-fragment, COOH-terminal half (residues Aα392-610) (human, UniProt P02671 411-629)
T3 construct: probably the mature Aα chain; also called Aα392-610 sub-fragment; Aα392-610 fragment
T3 sequence (looked up): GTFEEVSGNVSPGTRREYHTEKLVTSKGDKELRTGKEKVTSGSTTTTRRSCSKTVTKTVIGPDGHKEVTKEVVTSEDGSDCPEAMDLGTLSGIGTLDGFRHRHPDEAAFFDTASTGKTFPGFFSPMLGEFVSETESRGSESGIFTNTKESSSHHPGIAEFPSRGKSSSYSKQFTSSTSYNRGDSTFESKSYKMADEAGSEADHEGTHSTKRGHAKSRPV
Protocol: as §1, §2

binding result [1]: no binding | binding result [2]: no binding | binding result [3]: no binding
B1: Synthetic thymosin β4 (peptide, UniProt P62328 2-44, looked up)
peptide: SDKPDMAEIEKFDKSKLKKTETQEKNPLPSKETIEQEKQAGES
modifications: not fully specified
notes: mature; also called Tβ4

From patent US20100204147A1 (REGENERX BIOPHARMACEUTICALS, published 2010)
